Experimental data published in article PMC5374410, “Identification of a Potent Allosteric Inhibitor of Human Protein Kinase CK2 by Bacterial Surface Display Library Screening” (Pharmaceuticals, 2017).

Tests used:
[1] = molecular target: recombinant human protein kinase CK2 holoenzyme coupled to fluorescein isothiocyanate (FITC) (human) (UniProt P68400)
[2] = molecular target: CK2α-pAzF coupled to DBCO-Sulfo-Cy5 (human) (UniProt P68400); experiment: MST; B2 titrated (7.6 nM to 125 or 250 µM) to 100 nM fluorophore-labelled CK2α-DBCO-Sulfo-Cy5 or CK2β^1-193-Flu; 50 mM Tris/HCl pH 7.5, 25 mM NaCl, 20 mM MgCl2, Tween-20, DMSO; 37 °C, MST power 60%; Monolith NT.115; three independent measurements

recombinant human protein kinase CK2 holoenzyme coupled to fluorescein isothiocyanate (FITC) (human), sequence (P68400 whole entry, chain 1 of 2): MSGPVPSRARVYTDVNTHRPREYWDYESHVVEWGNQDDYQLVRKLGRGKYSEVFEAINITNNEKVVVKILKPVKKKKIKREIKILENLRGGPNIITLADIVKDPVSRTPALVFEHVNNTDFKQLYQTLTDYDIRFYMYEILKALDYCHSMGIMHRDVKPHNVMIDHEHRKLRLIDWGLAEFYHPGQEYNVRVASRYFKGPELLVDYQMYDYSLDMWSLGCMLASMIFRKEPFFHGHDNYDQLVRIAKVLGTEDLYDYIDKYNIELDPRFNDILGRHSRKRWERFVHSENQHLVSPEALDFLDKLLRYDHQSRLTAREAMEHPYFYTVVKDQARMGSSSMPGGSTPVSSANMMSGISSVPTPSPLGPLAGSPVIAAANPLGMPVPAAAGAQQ
recombinant human protein kinase CK2 holoenzyme coupled to fluorescein isothiocyanate (FITC) (human), sequence (P67870 whole entry, chain 2 of 2, further chain): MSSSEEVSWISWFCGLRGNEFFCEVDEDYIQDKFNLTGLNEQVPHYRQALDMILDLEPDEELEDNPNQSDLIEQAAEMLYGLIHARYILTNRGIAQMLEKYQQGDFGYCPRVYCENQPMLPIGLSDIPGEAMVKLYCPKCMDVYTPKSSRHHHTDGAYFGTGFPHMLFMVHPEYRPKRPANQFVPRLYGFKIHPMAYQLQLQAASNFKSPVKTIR

Row | percent inhibition of (unlabelled) CK2 holoenzyme at 10 µM peptide, CE assay [1] [%] | Binder | Kd [2] [nM]
1 | < 5 | KHTKGPTAYCPL [peptide B1 (free synthetic peptide)] | 
2 |  | DCRGLIVMIKLH [peptide B2 (free synthetic peptide)] | 2160
3 | 29 | PCPAPRAPKLSI [peptide B4 (free synthetic peptide)] | 
4 | < 5 | YRKPHWFIHTRI [peptide B3 (free synthetic peptide)] | 
